The text below walks through data of publication PMC7966918 (Cell Research, 2021).

The target in this assay is T1, SARS-CoV-2 S protein extracellular domain (S-ECD, 1–1208 aa) (SARS-CoV-2, Wuhan-Hu-1 (GenBank …, UniProt P0DTC2, proline substitution at residue 986 | proline substitution at residue 987 | …)).
T1 construct: also called S trimer; trimeric S protein
Nature of the assay: cryo-EM structure. As to conditions: both partners purified.

B1: P5A-2G9 (full-length IgG) (antibody, V domains shown)
VH: QVQLVESGGGVVQPGRSLRLSCAASGFTFSSYGMHWVRQAPGKGLEWVAVIWYDGSNKYYADSVKGRFTISRDNSKNTLYLQMNSLRAEDTAVYYCARWFHTGGYFDYWGQGTLVTVSS
VL: QPVLTQPPSSSASPGESARLTCTLPSDINVSSYNIYWYQQKPGSPPRYLLYYYSDSDKGQGSGVPSRFSGSKDASANTGILLISGLQSEDEADYYCMIWPSNALYVFGTGTKVTVL
As to B1, the binding result was “binds”.

B2: P2B-1A10 (full-length IgG) (antibody, V domains shown)
VH: EVQLVESGGGLIQPGGSLRLSCAASGFTVSSNYMSWVRQAPGKGLEWVSVIYSGGSTYYADSVKGRFTISRDNSKNTLYLQMNSLRAEDTAVYYCAREGPKSITGTAFDIWGQGTIVTVSS
VL: DIQMTQSPSSLSASVGDRVTITCQASQDISNYFNWYQQKPGKAPKLLIYDASNLETGVPSRFSGSGSGTDFTFTISSLQPEDIATYYCQQYDNLPMYTFGQGTKLEIK
With B2, the binding result is “binds”.
